Test system: His-DLA2 (RBP63, Cr-E2) (Chlamydomonas reinhardtii)
Assay: filter binding
Conditions: 5 mM Mg2+; 6.7 pM RNA; 20 mM HEPES/KOH pH 7.8, 5 mM MgCl2, 60 mM KCl, RT; 5 min (UV cross-linking, 254 nm, 1 J/cm2) or 15 min (filter binding); native fractions dialyzed to 30 mM …

psbA 5' UTR RNA showed a Kd of 51 nM.

From PMC3570535
